Results as given in patent US20190225669A1 (ACCELERON PHARMA, published 2019).
Where two headings read alike, the source gives them in different places.

Key:
activin A [1] = biological target: T1, activin A (UniProt P08476 311-426); test: Biacore SPR
T1 sequence (looked up): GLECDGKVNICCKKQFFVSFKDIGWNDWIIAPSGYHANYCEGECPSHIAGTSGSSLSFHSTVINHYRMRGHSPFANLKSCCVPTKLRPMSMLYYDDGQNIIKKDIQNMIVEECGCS
Description: (§1) Ligands were injected and allowed to flow over the captured receptor protein.

activin B [2] = biological target: T2, activin B (UniProt P09529 293-407); test: Biacore SPR
T2 sequence (looked up): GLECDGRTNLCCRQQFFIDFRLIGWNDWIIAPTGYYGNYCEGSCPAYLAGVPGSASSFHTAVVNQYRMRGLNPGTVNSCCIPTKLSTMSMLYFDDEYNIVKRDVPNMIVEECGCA
Description: as §1

GDF11 [3] = biological target: T3, GDF11 (UniProt O95390 299-407); test: Biacore SPR
T3 construct: also called BMP11
T3 sequence (looked up): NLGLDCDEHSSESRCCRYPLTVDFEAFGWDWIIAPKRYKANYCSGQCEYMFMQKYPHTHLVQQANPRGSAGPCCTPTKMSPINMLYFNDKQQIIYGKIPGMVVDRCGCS
Description: as §1

activin A [4] = biological target: T1, activin A; test: Biacore SPR; remark: listed apart in the source
Description: as §1

activin AB [5] = biological target: T4, activin AB (UniProt P08476 311-426; P09529 293-407); test: Biacore SPR
T4 sequence (looked up) 1: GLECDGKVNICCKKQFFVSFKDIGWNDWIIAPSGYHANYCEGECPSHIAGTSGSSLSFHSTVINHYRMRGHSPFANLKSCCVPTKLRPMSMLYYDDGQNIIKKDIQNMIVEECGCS
T4 sequence (looked up) 2: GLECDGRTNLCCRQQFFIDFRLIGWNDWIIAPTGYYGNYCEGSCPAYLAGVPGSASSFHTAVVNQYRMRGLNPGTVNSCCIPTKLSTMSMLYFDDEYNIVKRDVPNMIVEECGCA
Description: as §1

activin AC = biological target: T5, activin AC (UniProt P08476 311-426; P55103 237-352); test: Biacore SPR
T5 sequence (looked up) 1: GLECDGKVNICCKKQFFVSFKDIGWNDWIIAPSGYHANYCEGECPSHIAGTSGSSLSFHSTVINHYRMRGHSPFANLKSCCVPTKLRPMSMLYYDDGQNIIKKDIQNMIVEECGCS
T5 sequence (looked up) 2: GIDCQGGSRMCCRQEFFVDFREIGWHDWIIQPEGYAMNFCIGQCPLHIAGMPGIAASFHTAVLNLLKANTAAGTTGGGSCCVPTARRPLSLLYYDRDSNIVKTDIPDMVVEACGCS
Description: as §1

BMP6 [6] = biological target: T6, BMP6 (UniProt P22004 382-513, limits assumed); test: Biacore SPR
T6 sequence (looked up): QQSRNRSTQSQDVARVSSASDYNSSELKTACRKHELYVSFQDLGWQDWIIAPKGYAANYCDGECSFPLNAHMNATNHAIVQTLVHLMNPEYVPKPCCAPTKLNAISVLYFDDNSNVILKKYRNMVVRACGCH
Description: as §1

BMP7 = biological target: T7, BMP7 (UniProt P18075 293-431); test: Biacore SPR
T7 sequence (looked up): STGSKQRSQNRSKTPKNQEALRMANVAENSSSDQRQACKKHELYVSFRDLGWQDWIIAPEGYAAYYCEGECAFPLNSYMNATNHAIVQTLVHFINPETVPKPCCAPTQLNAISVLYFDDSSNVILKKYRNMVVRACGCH
Description: as §1

BMP10 [7] = biological target: T8, BMP10 (UniProt O95393 317-424); test: Biacore SPR
T8 sequence (looked up): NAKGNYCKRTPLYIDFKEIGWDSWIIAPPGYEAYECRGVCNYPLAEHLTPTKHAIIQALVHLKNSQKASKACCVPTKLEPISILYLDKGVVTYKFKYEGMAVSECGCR
Description: as §1

GDF11 [8] = biological target: T3, GDF11; test: Biacore SPR; remark: listed apart in the source
Description: as §1

activin A [9] = biological target: T1, activin A; test: Biacore SPR; remark: listed apart in the source
Description: as §1

activin AB [10] = biological target: T4, activin AB; test: Biacore SPR; remark: listed apart in the source
Description: as §1

BMP9 [11] = biological target: T9, BMP9 (UniProt Q9UK05 320-429); test: Biacore SPR
T9 construct: also called GDF2
T9 sequence (looked up): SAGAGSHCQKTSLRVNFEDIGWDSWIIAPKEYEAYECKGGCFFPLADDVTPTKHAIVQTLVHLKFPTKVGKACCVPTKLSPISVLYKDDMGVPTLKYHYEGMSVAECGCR
Description: as §1

BMP15 = biological target: T10, BMP15 (UniProt O95972 268-392); test: Biacore SPR
T10 construct: also called GDF9b
T10 sequence (looked up): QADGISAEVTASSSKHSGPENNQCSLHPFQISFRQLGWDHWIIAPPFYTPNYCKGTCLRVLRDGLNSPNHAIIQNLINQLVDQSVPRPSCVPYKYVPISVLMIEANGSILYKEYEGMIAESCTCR
Description: as §1

GDF11 [12] = biological target: T3, GDF11; test: Biacore SPR; † very low signal
Description: as §1

GDF11 [13] = biological target: T3, GDF11; test: Biacore SPR; † very low signal; remark: listed apart in the source
Description: as §1

activin B [14] = biological target: T2, activin B; test: Biacore SPR; remark: listed apart in the source
Description: as §1

BMP6 [15] = biological target: T6, BMP6; test: Biacore SPR; remark: listed apart in the source
Description: as §1

BMP9 [16] = biological target: T9, BMP9; test: Biacore SPR; remark: listed apart in the source
Description: as §1

BMP10 [17] = biological target: T8, BMP10; test: Biacore SPR; remark: listed apart in the source
Description: as §1

GDF3 = biological target: T11, GDF3 (UniProt Q9NR23 251-364); test: Biacore SPR
T11 sequence (looked up): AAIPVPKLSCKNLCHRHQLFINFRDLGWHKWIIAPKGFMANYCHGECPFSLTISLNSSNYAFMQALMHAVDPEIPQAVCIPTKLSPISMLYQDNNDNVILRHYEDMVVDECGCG
Description: as §1

GDF8 = biological target: T12, GDF8 (UniProt O14793 267-375); test: Biacore SPR
T12 construct: also called myostatin
T12 sequence (looked up): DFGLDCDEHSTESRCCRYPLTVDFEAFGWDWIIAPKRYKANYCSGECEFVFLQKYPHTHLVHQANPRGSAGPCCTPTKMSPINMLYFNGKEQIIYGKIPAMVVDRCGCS
Description: as §1

GDF11 [18] = biological target: T3, GDF11; test: Biacore SPR; remark: listed apart in the source
Description: as §1

TGFβ1 = biological target: T13, TGFβ1 (human, UniProt P01137 279-390); test: Biacore SPR
T13 construct: Human (PeproTech) is stated for the A549 reporter assay; also called TGF-beta1
Description: (§2) The heteromeric or homomeric protein complexes were independently captured onto the system using an anti-Fc antibody. Ligands were injected and allowed to flow over the captured receptor protein.

TGFβ2 = biological target: T14, TGFβ2 (human, UniProt P61812 303-414); test: Biacore SPR
T14 construct: Human (PeproTech) is stated for the A549 reporter assay; also called TGF-beta2
T14 sequence (looked up): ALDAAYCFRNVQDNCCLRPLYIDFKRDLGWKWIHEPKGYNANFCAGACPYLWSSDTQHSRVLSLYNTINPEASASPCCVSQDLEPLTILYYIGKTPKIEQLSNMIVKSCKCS
Description: as §2

TGFβ3 = biological target: T15, TGFβ3 (human, UniProt P10600 301-412); test: Biacore SPR
T15 construct: Human (PeproTech) is stated for the A549 reporter assay; also called TGF-beta3
T15 sequence (looked up): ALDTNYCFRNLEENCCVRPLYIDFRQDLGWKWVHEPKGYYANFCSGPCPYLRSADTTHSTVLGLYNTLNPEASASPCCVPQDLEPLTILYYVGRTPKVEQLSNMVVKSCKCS
Description: as §2

T13 sequence (P01137 279-390 limits assumed): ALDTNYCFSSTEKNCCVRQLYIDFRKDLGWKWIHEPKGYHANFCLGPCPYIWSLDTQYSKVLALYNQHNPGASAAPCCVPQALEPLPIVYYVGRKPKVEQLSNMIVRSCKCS

B1: ALK4-Fc homodimer (Fc fusion, UniProt P36896 24-126, looked up, not shown: a dimerising Fc or GST)
chain: SGPRGVQALLCACTSCLQANYTCETDGACMVSIFNLDGMEHHVRTCIPKVELVPAGKPFYCLSSEDLRNTHCCYTDYCNRIDLRVPSGHLKEPEHPSMWGPVE
notes: extracellular domain
B1 gave a Kd (activin A [1]) of 20 nM, a koff (activin A [1]) of 0.012 s⁻¹ and a kon (activin A [1]) of 580000 M⁻¹ s⁻¹. For the same binder, the binding result (activin B [2]) was “no binding”, the koff (GDF11 [3]) was 0.0048 s⁻¹ and the kon (GDF11 [3]) was 5e+06 M⁻¹ s⁻¹. The Kd (activin A [4]) was 20 nM, the koff (activin A [4]) was 0.012 s⁻¹ and the kon (activin A [4]) was 580000 M⁻¹ s⁻¹. It also gave a Kd (activin AB [5]) of 2 nM, a koff (activin AB [5]) of 0.0036 s⁻¹ and a kon (activin AB [5]) of 1.8e+06 M⁻¹ s⁻¹. B1: no binding (activin AC); no binding (BMP6 [6]); no binding (BMP7). For the same binder, the binding result (BMP10 [7]) was “no binding”, the koff (GDF11 [8]) was 0.0048 s⁻¹ and the kon (GDF11 [8]) was 5e+06 M⁻¹ s⁻¹. It also gave a Kd (activin A [9]) of 20 nM, a koff (activin A [9]) of 0.012 s⁻¹ and a kon (activin A [9]) of 580000 M⁻¹ s⁻¹. It also gave a Kd (activin AB [10]) of 1.5 nM, a koff (activin AB [10]) of 0.0064 s⁻¹ and a kon (activin AB [10]) of 4.4e+06 M⁻¹ s⁻¹. For the same binder, the binding result (BMP9 [11]) was “no binding”, the binding result (BMP15) was “no binding” and the Kd (GDF11 [12]) was 0.97 nM. The Kd (GDF11 [13]) was 0.97 nM.

B2: ALK5-Fc homodimer (Fc fusion, UniProt P36897 34-126, looked up, not shown: a dimerising Fc or GST)
chain: LQCFCHLCTKDNFTCVTDGLCFVSVTETTDKVIHNSMCIAEIDLIPRDRPFVCAPSSKTGSVTTTYCCNQDHCNKIELPTTVKSSPGLGPVEL
notes: extracellular domain
B2: no binding (activin B [14]); no binding (BMP6 [15]); no binding (BMP9 [16]). B2: no binding (BMP10 [17]); no binding (GDF3); no binding (GDF8). B2: no binding (GDF11 [18]); no binding (TGFβ1); no binding (TGFβ2). B2: no binding (TGFβ3).
